{"source": "patent CN112063765A", "about": "(BEIJING XINSONG BIOLOGICAL TECH CO LTD, dated 2020)", "assay_in_all_cases": "cell-based or functional assay", "key": {"[1]": {"biological_target": "A/swine/Jalisco/12-13/2012(H1N1) (Influenza A virus …)"}, "[2]": {"biological_target": "New Caledonia/20/99(H1N1) (Influenza A virus New Caledonia/20/99 …)"}, "[3]": {"biological_target": "Solomon Islands/3/2006(H1N1) (Influenza A virus Solomon …)"}}}
{"binder": "3E6单克隆抗体 (antibody, V domains shown) VH: EVQLEESGTELARPGASVKLALKASGYIFSSYSGQWIKQRPGAGLELIGYPYPGWIDTRYTQKLTGKATLTADKSSSTLYMQLSSLASEDSAVAYCAGSYFSSDAWGLGTTLAVSS VL: DIVLTQSPALMAASAGEKVTITCAVSQSIQSGYLAWYQQKSGISPKPWIYDTSNQAGGVPARFSGAGSGTSYSLTITSMEAEDAATYYCAQGTTSPLSFGAGTKLELK", "values": [{"measurement": "中和活性 (Lenti-pseudovirus, 293A细胞, β-gal; 抗体浓度 0.01μg/mL)", "setting": "[1]", "value": 0.974}, {"measurement": "中和活性 (Lenti-pseudovirus, 293A细胞, β-gal; 抗体浓度 0.01μg/mL)", "setting": "[2]", "value": 0.865}, {"measurement": "中和活性 (Lenti-pseudovirus, 293A细胞, β-gal; 抗体浓度 0.01μg/mL)", "setting": "[3]", "value": 0.843}]}
